Test results: patent US12428658B2, “Methods and compositions for enzymatic polymerization of N3′→P5′ phosphoramidate DNA” (The General Hospital Corporation, priority 2019, dated 2025)
Where two headings read alike, the source gives them in different places.

Experiments:
[1] = system: 3′-amino terminal DNA primer / DNA template duplex; experiment: 3′-amino primer extension assay (single nucleotide addition, pre-steady-state NP activity); format: biochemical
Method: (§1) Primer extension assays. Except where indicated, all extension reactions were performed with 1 μM fluorescein-labeled primer, 1.5 μM template, and ˜1.1 μM purified His6-tagged protein at 55° C. in a reaction buffer composed of 40 mM Tris-HCl, pH 8.8, 1 mM DTT, and a divalent cation as specified, typically 10 mM CaCl2. Reaction mixtures were equilibrated at the indicated reaction temperature for 1 min and initiated by addition of substrate. Progress was monitored by sampling 1 μL from the reaction manually quenched into 24 μL of chilled 90% formamide, 10 mM EDTA. Quenched samples were denatured at 90° C. for 1 min and cooled to room temperature prior to separation by denaturing polyacrylamide gel electrophoresis on 20% TBE-urea gels. To maintain strand separation for long extension products, as in FIGS. 3F-31I, an unlabeled DNA oligonucleotide complementary to the template was added to the quenching buffer (˜2 μM) prior to denaturation. Typically, 3 or 4 μL of quenched sample was loaded per lane for gels of 0.75-mm thickness. Bands were visualized with a Typhoon laser scanning imager (GE Amersham) and quantified with the manufacturer's software. For acid digestion of extended products, a reaction sample was diluted with 2.5 volumes of 1% acetic acid, 10 mM EDTA in formamide and digested at 75° C. for 45 min prior to gel separation.

[2] = system: 3′-amino terminal DNA primer / mixed sequence template duplex; experiment: Multiple-turnover NP-DNA synthesis by 3′-amino primer extension with all four nNTPs on a mixed sequence template; format: biochemical; settings: 55° C., Ca2+
Method: as §1

B1: F710Y: B. stearothermophilus DNA polymerase I large fragment (BF) with single active site mutation F710Y in the O helix (protein, listed as Bacillus stearothermophilus)
chain: MKNKLVLIDGNSVAYRAFFALPLLHNDKGIHTNAVYGFTMMLNKILAEEQPTHILVAFDAGKTTFRHETFQDYKGGRQQTPPELSEQFPLLRELLKAYRIPAYELDHYEADDIIGTMAARAEREGFAVKVISGDRDLTQLASPQVTVEITKKGITDIESYTPETVVEKYGLTPEQIVDLKGLMGDKSDNIPGVPGIGEKTAVKLLKQFGTVENVLASIDEIKGEKLKENLRQYRDLALLSKQLAAICRDAPVELTLDDIVYKGEDREKVVALFQELGFQSFLDKMAVQTDEGEKPLAGMDFAIADSVTDEMLADKAALVVEVVGDNYHHAPIVGIALANERGRFFLRPETALADPKFLAWLGDETKKKTMFDSKRAAVALKWKGIELRGVVFDLLLAAYLLDPAQAAGDVAAVAKMHQYEAVRSDEAVYGKGAKRTVPDEPTLAEHLVRKAAAIWALEEPLMDELRRNEQDRLLTELEQPLAGILANMEFTGVKVDTKRLEQMGAELTEQLQAVERRIYELAGQEFNINSPKQLGTVLFDKLQLPVLKKTKTGYSTSADVLEKLAPHHEIVEHILHYRQLGKLQSTYIEGLLKVVHPVTGKVHTMFNQALTQTGRLSSVEPNLQNIPIRLEEGRKIRQAFVPSEPDWLIFAADYSQIELRVLAHIAEDDNLIEAFRRGLDIHTKTAMDIFHVSEEDVTANMRRQAKAVNYGIVYGISDYGLAQNLNITRKEAAEFIERYFASFPGVKQYMDNIVQEAKQKGYVTTLLHRRRYLPDITSRNFNVRSFAERTAMNTPIQGSAADIIKKAMIDLSVRLREERLQARLLLQVHDELILEAPKEEIERLCRLVPEVMEQAVTLRVPLKVDYHYGPTWYDAK
[1]; 10 mM CaCl2, pre-steady-state
  Selectivity dCTP/nCTP, ratio (kpol/Kd, app)dCTP/(kpol/Kd, app)nCTP: 9
[1]; 3′-amino primer extension, 10 mM CaCl2, pre-steady-state, read-out: Kd, app dCTP
  Kd: 1100 nM
[1]; 3′-amino primer extension, 10 mM CaCl2, pre-steady-state, read-out: Kd, app nCTP
  Kd: 3600 nM
[1]; 3′-amino primer extension, varying dCTP, 10 mM CaCl2, pre-steady-state, 55° C., pH 8.8
  kpol dCTP: 0.191 min⁻¹
[1]; 3′-amino primer extension, varying nCTP, 10 mM CaCl2, pre-steady-state, 55° C., pH 8.8
  kpol nCTP: 0.069 min⁻¹
[1]; Ca2+ cofactor
  increase in kpol for dCTP vs. wild-type: 2.6 fold
  increase in kpol for nCTP (NP activity) vs. wild-type: 21 fold
[1]; nCTP, Ca2+, from Table 4
  transient kpol/Kd for NP-DNA synthesis with Ca2+: 320 M⁻¹ s⁻¹
[1]; saturating Ca2+ vs. Mg2+, faster with Ca2+
  maximum reaction velocity / NP activity, Ca2+ vs. Mg2+: 5 fold
[1]; with Ca2+
  apparent binding affinity for nCTP vs. dCTP, effect of the mutation: unaffected
[1]; with F710Y
  kinetic disadvantage of NP-DNA polymerase activity relative to native phosphodiester bond forming activity: approximately four orders-of-magnitude
[2]
  time to full length +28 nt NP-DNA product: < 24 h
